From PMC11147762

Key:
[1] = target: T1, DDX41-ΔHel-WT (DDX41 D3) (Homo sapiens, UniProt Q9UJV9 1-406+568-622, internal_change); assay: EMSA; EMSA, 0-1300 nM protein with 10 nM nucleic acid; buffer, salt, pH and temperature not in material; conditions: protein: recombinant, label: 5'-Cy5 on oligo1
[2] = target: DDX41-R525H (Homo sapiens, UniProt Q9UJV9 1-622, R525H); assay: as above; conditions: protein: recombinant; label: 5'-Cy5 on oligo1; 5'-Cy3 on RNA; bubble of oligo1/oligo2 with 25-nt RNA paired to oligo2
[3] = target: DDX41-ΔHel-Y259C (Homo sapiens, UniProt Q9UJV9 1-406+568-622, Y259C;internal_change); assay: as above; conditions: protein: recombinant; label: 5'-Cy5 on oligo1; 5'-Cy3 on RNA; bubble of oligo1/oligo2 with 25-nt RNA paired to oligo2
[4] = target: T1, DDX41-ΔHel-WT (DDX41 D3); assay: EMSA; m6A had no effect on affinity; EMSA, 0-1300 nM protein with 10 nM nucleic acid; buffer, salt, pH and temperature not in material; conditions: protein: recombinant; label: 5'-Cy5 on oligo1; 5'-Cy3 on RNA; bubble of oligo1/oligo2 with 25-nt RNA paired to oligo2

T1 sequence (Q9UJV9 other isoform, or with tags, fused parts or gaps | mutant): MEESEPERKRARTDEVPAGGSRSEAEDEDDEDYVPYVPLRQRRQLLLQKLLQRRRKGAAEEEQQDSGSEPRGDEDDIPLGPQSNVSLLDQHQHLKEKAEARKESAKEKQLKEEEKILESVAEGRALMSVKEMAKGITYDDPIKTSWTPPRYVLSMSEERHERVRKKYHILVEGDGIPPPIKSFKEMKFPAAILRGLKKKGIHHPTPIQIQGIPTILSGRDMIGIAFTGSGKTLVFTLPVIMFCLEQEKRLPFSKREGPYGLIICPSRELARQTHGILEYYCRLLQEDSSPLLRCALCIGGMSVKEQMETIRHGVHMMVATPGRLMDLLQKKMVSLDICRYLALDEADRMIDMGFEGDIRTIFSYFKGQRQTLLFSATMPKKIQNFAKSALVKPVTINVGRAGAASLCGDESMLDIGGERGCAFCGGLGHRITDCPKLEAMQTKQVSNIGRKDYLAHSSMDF
Chain of DDX41-ΔHel-Y259C (Q9UJV9 other isoform, or with tags, fused parts or gaps Y259C/| Y259C Y259C): as the sequence (Q9UJV9 other isoform, or with tags, fused parts or gaps | mutant) above, with Y259C counted along it
Chain of DDX41-R525H (Q9UJV9 whole entry R525H): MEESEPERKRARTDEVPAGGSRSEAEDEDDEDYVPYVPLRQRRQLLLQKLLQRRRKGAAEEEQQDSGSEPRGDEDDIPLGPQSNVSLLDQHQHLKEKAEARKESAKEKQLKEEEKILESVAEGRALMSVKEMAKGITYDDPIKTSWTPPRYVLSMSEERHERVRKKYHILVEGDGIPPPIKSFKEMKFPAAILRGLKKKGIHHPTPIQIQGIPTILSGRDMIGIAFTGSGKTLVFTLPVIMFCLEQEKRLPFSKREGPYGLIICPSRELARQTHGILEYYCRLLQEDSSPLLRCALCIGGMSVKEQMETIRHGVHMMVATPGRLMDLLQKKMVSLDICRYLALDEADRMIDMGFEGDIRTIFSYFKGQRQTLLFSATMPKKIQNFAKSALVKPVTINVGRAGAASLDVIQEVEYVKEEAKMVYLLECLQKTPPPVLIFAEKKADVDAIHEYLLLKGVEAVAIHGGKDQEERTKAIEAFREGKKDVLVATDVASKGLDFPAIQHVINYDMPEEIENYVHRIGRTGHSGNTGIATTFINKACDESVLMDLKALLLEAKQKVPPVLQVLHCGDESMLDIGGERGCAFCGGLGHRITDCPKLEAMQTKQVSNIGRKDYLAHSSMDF

B1: R-loop (mixed)
DNA 1: GCCAGGGACGAGGTGAACCTGCAGGTGGGCGGCTACTACTTAGATGTCATCCGAGGCTTATTGGTAGAATTCGGCAGCGTCATGCGACGGC
DNA 2: GCCGTCGCATGACGCTGCCGAATTCTACCACGCGATTCATACCTGTCGTGCCAGCTGCTTTGCCCACCTGCAGGTTCACCTCGTCCCTGGC
RNA: GCAGCUGGCACGACAGGUAUGAAUC
[1]; 5'-Cy3 on RNA, bubble of oligo1/oligo2 with 25-nt RNA paired to oligo2
  binding result: binds
[2]
  binding result: binds
[3]
  binding result: binds

B2: m6A R-loop (mixed)
DNA 1: B1 DNA 1
DNA 2: B1 DNA 2
RNA: GCAGCUGGCACGACAGGUAUGAAUC
modifications: m6A in RNA strand; positions not visible in material
[4]
  binding result: binds

B3: D-loop (structured_DNA)
DNA 1: B1 DNA 1
DNA 2: B1 DNA 2
DNA 3: GCAGCTGGCACGACAGGTATGAATC
[1]; bubble with 25-nt DNA paired to oligo2
  binding result: binds
